Data as given in article PMC7958859, “Molecular and Pharmacological Characterization of the Interaction between Human Geranylgeranyltransferase Type I and Ras-Related Protein Rap1B” (International Journal of Molecular Sciences, 2021).

Biological target: human GGTase-I (LgBiT-GGTase-I-β-subunit with co-transfected untagged FTase α-subunit) (human, UniProt P53609-1 2-377; P49354-1 1-379)
Assay: split reporter (BiFC, NanoBiT); living HEK293 cells stably expressing the human A2BAR, transient co-transfection (50 ng DNA/well of each LgBiT and SmBiT plasmid, 100 ng/well untagged FTase α, ΔCQLL 50–200 ng/well); NanoGlo live-cell substrate 24 h after transfection, luminescence at 25 °C every 30 s, maxima plotted as RLU; also after treatment with vehicle (DMSO), adenosine, NECA, BAY60-6583, CGS-21680, forskolin, …
Conditions: partners not purified

- fold lower luminescence than with Rap1B WT (50 ng DNA/well each): ~20 fold
- fold lower luminescence than with Rap1B WT (ΔCQLL 200 ng DNA/well, WT 50 ng DNA/well): ~10 fold
B1: SmBiT-Rap1B ΔCQLL (domain or fragment)
chain: REYKLVVLGSGGVGKSALTVQFVQGIFVEKYDPTIEDSYRKQVEVDAQQCMLEILDTAGTEQFTAMRDLYMKNGQGFALVYSITAQSTFNDLQDLREQILRVKDTDDVPMILVGNKCDLEDERVVGKEQGQNLARQWNNCAFLESSAKSKINVNEIFYDLVRQINRKTPVPGKARKKSS
notes: human Rap1B lacking the C-terminal CAAX motif CQLL (from C181 to the end); the forward primer begins at codon 2, the reverse primer ends with Lys-Lys-Ser-Ser and a stop codon; Expression about 5-fold lower than SmBiT-Rap1B WT by Western blot; Glycine/serine linker and Ala-Ile-Ala between SmBiT and Rap1B; also called complete CAAX motif deletion mutant; source: HEK293 stably expressing the human …
